From patent US20200247894A1 (Regeneron, published 2020)

T1: Mouse IL2Rγ extracellular domain expressed with a C-terminal myc-myc-hexahistidine tag (mouse)
T1 construct: whole entry is the tagged construct; also called mIL-2Rg-MMH
T1 chain: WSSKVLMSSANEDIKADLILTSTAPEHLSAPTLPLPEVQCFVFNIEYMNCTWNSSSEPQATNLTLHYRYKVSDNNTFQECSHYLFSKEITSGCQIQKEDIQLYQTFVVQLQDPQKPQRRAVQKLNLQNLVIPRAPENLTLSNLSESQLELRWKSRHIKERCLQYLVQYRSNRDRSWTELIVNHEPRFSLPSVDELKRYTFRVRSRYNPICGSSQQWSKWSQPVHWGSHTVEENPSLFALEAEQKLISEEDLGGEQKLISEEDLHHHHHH

T2: Macaca fascicularis IL2Rγ extracellular domain expressed with a C-terminal myc-myc-hexahistidine tag (Macaca fascicularis)
T2 construct: whole entry is the tagged construct; also called mfIL-2Rg-MMH
T2 chain: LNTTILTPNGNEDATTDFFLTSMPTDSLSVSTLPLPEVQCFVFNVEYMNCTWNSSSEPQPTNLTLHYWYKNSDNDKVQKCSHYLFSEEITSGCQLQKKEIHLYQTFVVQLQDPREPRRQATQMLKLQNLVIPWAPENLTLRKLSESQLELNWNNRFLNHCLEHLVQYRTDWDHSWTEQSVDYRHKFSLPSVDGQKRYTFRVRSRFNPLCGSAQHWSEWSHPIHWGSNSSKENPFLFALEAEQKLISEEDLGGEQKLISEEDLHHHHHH

T3: Rat IL2Rγ extracellular domain expressed with a C-terminal myc-myc-hexahistidine tag (rat)
T3 construct: whole entry is the tagged construct; also called rIL-2Rg-MMH; rat IL-2Rg-MMH
T3 chain: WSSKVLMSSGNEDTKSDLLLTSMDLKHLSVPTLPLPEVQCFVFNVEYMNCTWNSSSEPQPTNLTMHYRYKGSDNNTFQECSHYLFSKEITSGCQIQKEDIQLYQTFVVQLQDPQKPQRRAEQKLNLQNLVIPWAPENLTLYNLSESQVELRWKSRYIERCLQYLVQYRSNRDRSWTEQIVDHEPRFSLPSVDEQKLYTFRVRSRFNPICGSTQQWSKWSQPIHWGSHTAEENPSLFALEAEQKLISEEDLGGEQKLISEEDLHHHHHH

T4: Human IL2Rγ extracellular domain expressed with a C-terminal mouse IgG2a Fc tag (human)
T4 construct: whole entry is the Fc-fused construct; also called hIL-2Rg-mFc
T4 chain: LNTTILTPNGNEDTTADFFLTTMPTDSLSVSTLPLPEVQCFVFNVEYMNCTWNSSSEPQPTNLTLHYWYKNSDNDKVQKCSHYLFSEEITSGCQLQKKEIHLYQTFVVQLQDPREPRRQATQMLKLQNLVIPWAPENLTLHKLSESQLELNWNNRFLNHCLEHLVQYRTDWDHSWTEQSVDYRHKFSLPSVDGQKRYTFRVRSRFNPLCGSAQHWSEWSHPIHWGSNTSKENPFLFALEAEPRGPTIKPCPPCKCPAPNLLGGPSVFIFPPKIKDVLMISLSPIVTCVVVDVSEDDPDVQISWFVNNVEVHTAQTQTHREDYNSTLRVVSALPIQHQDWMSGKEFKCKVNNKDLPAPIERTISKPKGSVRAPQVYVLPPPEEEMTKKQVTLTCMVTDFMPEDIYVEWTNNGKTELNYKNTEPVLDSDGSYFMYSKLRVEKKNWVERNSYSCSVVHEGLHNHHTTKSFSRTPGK


How the values were obtained:
[1] = biological target: T1, Mouse IL2Rγ extracellular domain …; assay: SPR Biacore 4000, anti-hFc-captured mAb, 37 C
Experimental: (§1) Equilibrium dissociation constants (KD values) for IL-2Rγ binding to purified anti-IL2Rγ monoclonal antibodies were determined using a Biacore 4000 instrument equipped with a real-time surface plasmon resonance biosensor. All binding studies were performed in 10 mM HEPES, 150 mM NaCl, 3 mM EDTA, and 0.05% v/v Surfactant Tween-20, pH 7.4 (HBS-ET) running buffer at 25° C. and 37° C. The Biacore sensor surface was first derivatized by amine coupling with a monoclonal mouse anti-human Fc antibody (GE, # BR-1008-39) to capture anti-IL2Rγ monoclonal antibodies.
(§2) The dissociation of monoclonal antibody bound IL2Rγ reagents were monitored for 8-10 minutes in HBS-ET running buffer. Kinetic association (kₐ) and dissociation (kd) rate constants were determined by fitting the real-time sensorgrams to a 1:1 binding model using Scrubber 2.0c curve fitting software. Binding dissociation equilibrium constants (KD) and dissociative half-lives (t_{1/2}) were calculated from the kinetic rate constants as: […]

[2] = biological target: T2, Macaca fascicularis IL2Rγ extracellular …; assay: SPR Biacore 4000, anti-hFc-captured mAb, 37 C
Experimental: as §1, §2

[3] = biological target: T3, Rat IL2Rγ extracellular domain …; assay: SPR Biacore 4000, anti-hFc-captured mAb, 37 C
Experimental: as §1, §2

[4] = biological target: T4, Human IL2Rγ extracellular domain …; assay: SPR Biacore 4000, anti-hFc-captured mAb, 37 C
Experimental: as §1, §2

[5] = biological target: T1, Mouse IL2Rγ extracellular domain …; assay: SPR Biacore 4000, anti-hFc-captured mAb, 25 C
Experimental: as §1, §2

[6] = biological target: T3, Rat IL2Rγ extracellular domain …; assay: SPR Biacore 4000, anti-hFc-captured mAb, 25 C
Experimental: as §1, §2

[7] = biological target: T4, Human IL2Rγ extracellular domain …; assay: SPR Biacore 4000, anti-hFc-captured mAb, 25 C
Experimental: as §1, §2

Row | Binder | 100 nM Ag Bound [1] | 100 nM Ag Bound [2] | Kd [2] | koff [2] | kon [2] | t1/2 [2] | 100 nM Ag Bound [3] | 50 nM Ag Bound [4] | Kd [4] | koff [4] | kon [4] | t1/2 [4] | 100 nM Ag Bound [5] | 100 nM Ag Bound [6] | binding result [6] | 50 nM Ag Bound [7] | Kd [7] | koff [7] | kon [7] | t1/2 [7] | further results
1 | H4H12913P2 (antibody, human IgG4 S228P, kappa, V domains shown, fully human anti-IL2Rgamma mAb, human IgG4 Fc) VH: EVQLVESGGGVVRPGGSLRLSCAASGFTFDDYGMSWVRQAPGKGLEWISSINRNGGSADYADSVKGRFTISRDNAKNSLFLQMSSLRAEDTALYHCASGEFRFDYWGQGTLVTVSS VL: not shown | 0 RU | 20 RU | 37.3 nM | 0.00296 s⁻¹ | 79300 M⁻¹ s⁻¹ | 0.0667 h | 3 RU | 9 RU | 2.53 nM | 0.000185 s⁻¹ | 73200 M⁻¹ s⁻¹ | 1.03 h | 1 RU | 1 RU | no binding (tested: 100 nM) | 12 RU | 1.3 nM | 5.34e-05 s⁻¹ | 41200 M⁻¹ s⁻¹ | 3.6 h | binding result [5]: no binding (tested: 100 nM)
2 | H4H12884P (antibody, human IgG4 S228P, kappa, V domains shown, fully human anti-IL2Rgamma mAb, human IgG4 Fc) VH: QVQLQESGPGLVKPSQTLSLTCTVSGGSISSGGYYWSWIRQHPGKGLEWIGFIYYSGKTYYNPSLKSRLTISVDTSKSQFSLKLRSVTAADTAVYYCARLGYTNSAGWFDPWGQGTLVTVSS VL: DIQMTQSPSSLSASVGDRVTITCRASQSISSYLNWYQQKPGKAPNLLIYAASSLQSGVPSRFSGSGSGTDFTLTISSLQPEDLATYYCQQSYTTPFTFGPGTKVDIKR | 1 RU | 59 RU | 16.1 nM | 0.00321 s⁻¹ | 200000 M⁻¹ s⁻¹ | 0.0667 h | 4 RU | 85 RU | 0.0554 nM | 2.69e-05 s⁻¹ | 486000 M⁻¹ s⁻¹ | 7.15 h | 2 RU | 4 RU | no binding (tested: 100 nM) | 112 RU | 0.113 nM | 4.02e-05 s⁻¹ | 355000 M⁻¹ s⁻¹ | 4.78 h | binding result [5]: no binding (tested: 100 nM)
3 | H4H12924P2 (antibody, human IgG4 S228P, kappa, V domains shown, fully human anti-IL2Rgamma mAb, human IgG4 Fc) VH: EVQLVESGGGLVQPGRSLRLSCAASGFTLEDYAMHWVRQAPGKGLEWVSGISWNRGSTGYADSVKGRFTISRDNAKNSLYLQMTSLRAEDTALYYCAKGFYSMDVWGQGTTVTVSS VL: not shown | -1 RU | 24 RU | 20.7 nM | 0.0137 s⁻¹ | 662000 M⁻¹ s⁻¹ | 0.0133 h | 3 RU | 13 RU | 12.2 nM | 0.000183 s⁻¹ | 15000 M⁻¹ s⁻¹ | 1.05 h | 2 RU | 3 RU | no binding (tested: 100 nM) | 28 RU | 5.66 nM | 0.000411 s⁻¹ | 72600 M⁻¹ s⁻¹ | 0.467 h | –
4 | H4H12886P (antibody, human IgG4 S228P, kappa, V domains shown, fully human anti-IL2Rgamma mAb, human IgG4 Fc) VH: EVQLVESGGGLVKPGGSLRLSCAASGFTFSTAWMSWVRQSPGRGLEWVGRMKSKTDGGTTFYAAPVKGRFTISRDDSKNTLYLQMNSLKTEDTAVYYCTTGLVPAFYKYYGVDVWGQGTTVTVSS VL: DIQMTQSPSSLSASVGDRITITCQASQDITNYLNWYQQKPGKAPNLLIYDASNLVTGVPSRFSGSGSGTDFTFTILSLQPEDIATYYCQQYDSLLTFGPGTKVDIKR | -2 RU | 47 RU | 17.7 nM | 0.000846 s⁻¹ | 47800 M⁻¹ s⁻¹ | 0.233 h | 4 RU | 19 RU | 12.8 nM | 9.09e-05 s⁻¹ | 7080 M⁻¹ s⁻¹ | 2.12 h | 2 RU | 3 RU | no binding (tested: 100 nM) | 23 RU | 1.26 nM | 6.7e-05 s⁻¹ | 53400 M⁻¹ s⁻¹ | 2.87 h | –

Binders with a lower Kd [2], results first:

Row | 100 nM Ag Bound [1] | 100 nM Ag Bound [2] | Kd [2] | koff [2] | kon [2] | t1/2 [2] | 100 nM Ag Bound [3] | 50 nM Ag Bound [4] | Kd [4] | koff [4] | kon [4] | t1/2 [4] | 100 nM Ag Bound [5] | 100 nM Ag Bound [6] | binding result [6] | 50 nM Ag Bound [7] | Kd [7] | koff [7] | kon [7] | t1/2 [7] | Binder | further results
5 | -1 RU | 55 RU | 12.7 nM | 0.00261 s⁻¹ | 206000 M⁻¹ s⁻¹ | 0.0667 h | 1 RU | 81 RU | 0.0505 nM | 2.39e-05 s⁻¹ | 473000 M⁻¹ s⁻¹ | 8.07 h | 0 RU | 1 RU | no binding (tested: 100 nM) | 103 RU | 0.144 nM | 5.22e-05 s⁻¹ | 363000 M⁻¹ s⁻¹ | 3.68 h | H4H12871P (antibody, human IgG4 S228P, kappa, V domains shown, fully human anti-IL2Rgamma mAb, human IgG4 Fc; also called REGN9434) VH: QVQLQESGPGLVKPSQTLSLTCTVSGGSITSGGYYWSWIRQYPGQGLEWIGYIYYSGKTYYNPSFTSRITISVDTSKKQFSLKMSSVTAADTAVYYCARAGFTSSNGWFDPWGQGTLVTVSS VL: DIQMTQSPSSLSASVGDRVTITCRASQNIRSYLNWYQQKPGKAPKLLIYSASSLQSGVPSRFSGSGSGTDFTLTISSLQPEDFPTYYCQQTYSSPWTFGPGTKVEIKR | –
6 | 5 RU | 115 RU | 5.5 nM | 0.000932 s⁻¹ | 169000 M⁻¹ s⁻¹ | 0.2 h | 5 RU | 70 RU | 1.29 nM | 0.000187 s⁻¹ | 144000 M⁻¹ s⁻¹ | 1.03 h | 4 RU | 3 RU | no binding (tested: 100 nM) | 38 RU | 0.996 nM | 0.000116 s⁻¹ | 117000 M⁻¹ s⁻¹ | 1.65 h | H4H13538P (antibody, human IgG4 S228P, kappa, V domains shown, fully human anti-IL2Rgamma mAb, human IgG4 Fc) VH: EVQLVESGGGLVQPGGSLGLSCAASGFTFSNYAMSWVRQAPGKGLEWVSAVSGGGGGTYYADSVKGRFTISRDNSKNTVLLQMNSLRAEDTAVYYCARGRTGGLDYWGPGTLVTVSS VL: DVVMTQSPLSLPVIFGQPASISCRSSQSLVDSDGNTYLNWLQQRPGQSPRRLIYEVSNRDSGVPDRFSGSGSGTDFTLTISRVEAEDVGIYYCMQGTRWPPTFGGGTKVEIKR | binding result [5]: no binding (tested: 100 nM)
